Key:
PD1-hFc [1] = target: T1, PD1-hFc (UniProt Q15116 25-167); assay: ELISA on coated PD1-hFc; scFv-Fc expressed in FreeStyle 293 cells
T1 construct: ELISA coat at 1 ug/ml; not shown: hFc (human Fc)

PD1-hFc [2] = target: T1, PD1-hFc; assay: ELISA on PD-1; protein purified from supernatant of 293T cells transfected with the CAR plasmid
Method: To evaluate the expression of the present CAR construct, the plasmid encoding the CAR molecule was transfected into 293T cells. The protein was harvested from the supernatant of the cultured cells, followed by purifying and quantifying via measuring OD260/280. On the other hand, the binding affinity of the purified protein towards PD-1 was determined by ELISA.

PD1-hFc [3] = target: T1, PD1-hFc; assay: ELISA on coated PD1-hFc, anti-human kappa HRP, one site-specific binding fit
Method: ELISA plates were coated with PD1-hFc (1 ug/ml) and blocked with blocking buffer (5% milk dissolved in PBS). The antibodies from 66.67 nM to […] dilute (4× fold dilution) were then added to the plates. The binding affinity of tested antibody to PD1-hFc was determined via adding goat anti-human KAPPA HRP IgG (1:3,000 dilution), and binding curve and KD were determined by software using one site-specific binding for nonlinear fit methods.

recombinant PD-1 protein = target: T2, recombinant PD-1 protein (UniProt Q15116 25-167, limits assumed); assay: ELISA, recombinant PD-1 coated at 0.1 ug/well, serially diluted antibody
T2 construct: It may or may not be the same reagent as PD1-hFc
T2 sequence (Q15116 25-167 limits assumed): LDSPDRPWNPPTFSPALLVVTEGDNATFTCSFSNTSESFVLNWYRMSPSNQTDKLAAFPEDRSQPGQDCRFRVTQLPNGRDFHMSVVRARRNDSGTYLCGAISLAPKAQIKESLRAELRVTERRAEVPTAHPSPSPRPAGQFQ
Method: Antibodies of the invention were evaluated for specific binding to PD-1 using an enzyme-linked immunosorbent assay (ELISA). Briefly, recombinant PD-1 protein was immobilized on a 96-well ELISA plate at 0.1 μg/well. The chimeric anti-human PD-1 2B6 antibody was serially diluted and incubated with the coated PD-1, followed by detection with a horseradish peroxidase (HRP)-conjugated goat anti-mouse IgG secondary antibody. The binding was visualized using 3,3′,5,5′-tetramethylbenzidine (TMB) as a substrate, and the optical density (OD) was measured at 405 nm to assess the binding activity.

[4] = target: human PD-1 on PD-1 Effector Cells (Jurkat T cells) (human, UniProt Q15116 25-288); assay: cell-based or functional assay
human PD-1 on PD-1 Effector Cells (Jurkat T cells), sequence (Q15116 25-288): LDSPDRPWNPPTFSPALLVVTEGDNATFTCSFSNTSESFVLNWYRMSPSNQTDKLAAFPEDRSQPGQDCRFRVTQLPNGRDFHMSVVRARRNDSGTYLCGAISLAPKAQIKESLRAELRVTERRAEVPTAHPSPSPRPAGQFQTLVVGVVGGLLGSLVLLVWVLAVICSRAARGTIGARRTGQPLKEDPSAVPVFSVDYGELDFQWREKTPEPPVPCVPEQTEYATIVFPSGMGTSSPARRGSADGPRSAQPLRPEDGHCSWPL

T1 sequence (Q15116 25-167): as the sequence (Q15116 25-167 limits assumed) above

Row | Binder | Kd (PD1-hFc [3]) | also measured
1 | recombinant humanized 2B6 HuB1-scFv-Fc (Fc fusion, Both carry the same printed name and are kept as one molecule; also called 286 HuB1-scFv-Fc; PD-1^2B6 scFv-Fc; not shown: lim) scFv: EVQLVESGGGLVQPGGSLRLSCAASGFTFSSYTMSWVRQAPGKGLEWVATISGGGANIYYPDSVKGRFTISRDNSKNTLYLQMNSLRAEDTAVYYCVSPYYAIDFWGQGTLVTVSSGGGGSGGGGSGGGGSDIQMTQSPSSLSASVGDRVTITCKASQDVGSAVAWYQQKPGKAPKLLIYWASTRHTGVPSRFSGSGSGTDFTLTISSLQPEDFATYYCQQYSTYTWTFGQGTKVEIK | – | Kd (PD1-hFc [1]): 2.58 nM; Kd (PD1-hFc [2]): 1.75 nM
2 | humanized antibody 2B6 HdB1 Hd (antibody, V domains shown, Heavy chain HdB1 with light chain Hd) VH: EVQLVESGGGLVQPGGSLRLSCKASGFTFSSYTMSWVRQAPGKGLEWVATISGGGANIYYPDSVKGRFTISRDNSKNTLYLQMNSLRAEDTAVYYCVSPYYAIDFWGQGTLVTVSS VL: DIQMTQSPSSLSASVGDRVTITCKASQDVGSAVAWYQQKPGKAPKLLIYWASTRHTGVPSRFSGSGSGTDFTLTISSLQPEDFATYYCQQYSTYTWTFGQGTKVEIK | 0.368 nM | –
3 | humanized 2B6 4D5 (2B6-HdHd) (antibody, V domains shown, Heavy chain Hd with light chain Hd) VH: EVQLVESGGGLVQPGGSLRLSCKASGFTFSSYTMSWVRQAPGKGLEWVATISGGGANIYYPDSVKGRFTISRDDSKNTLYLQMNSLRAEDTAVYYCARPYYAIDFWGQGTLVTVSS VL: DIQMTQSPSSLSASVGDRVTITCKASQDVGSAVAWYQQKPGKAPKLLIYWASTRHTGVPSRFSGSGSGTDFTLTISSLQPEDFATYYCQQYSTYTWTFGQGTKVEIK | 179 nM | –
4 | humanized antibody 2B6 HuB1 Hd (antibody, V domains shown, Heavy chain HuB1 with light chain Hd) VH: EVQLVESGGGLVQPGGSLRLSCAASGFTFSSYTMSWVRQAPGKGLEWVATISGGGANIYYPDSVKGRFTISRDNSKNTLYLQMNSLRAEDTAVYYCVSPYYAIDFWGQGTLVTVSS VL: DIQMTQSPSSLSASVGDRVTITCKASQDVGSAVAWYQQKPGKAPKLLIYWASTRHTGVPSRFSGSGSGTDFTLTISSLQPEDFATYYCQQYSTYTWTFGQGTKVEIK | 0.403 nM | –
5 | chimeric anti-human PD-1 2B6 antibody (antibody, V domains shown, also called mAb 2B6; M-M) VH: EVKLVESGGGLVKPGGSLKLSCAAAGFTFSSYTMSWVRQTPAKRLEWVATISGGGANIYYPDSVKGRFTISRDNARNTLYLQMSSLRSEDTAMYYCVSPYYAIDFWGQGTSVTVSS VL: DTVMTQSDKFMSTSVGDRVSITCKASQDVGSAVAWYQQKPGQSPKLLIYWASTRHTGVPDRFTGSGSGTDFTLTISNVQSEDLADYFCQQYSTYTWTFGGGTKLEIK | 0.495 nM | Kd (recombinant PD-1 protein): 0.809 nM; NFAT-RE-mediated luminescence (PD-1/PD-L1 Blockade Bioassay), EC50 [4]: 3.88 nM

Reference: patent US20250381225A1 (DEVELOPMENT CENTER FOR BIOTECHNOLOGY, published 2025)
